These results are taken from the domain aggregation screens of Martell et al. (2025).

The data set can be described thus: soluble fraction after stress (log2 fold change); higher = more stays soluble; pooled small domains, quantitative proteomics. To be noted: stress: pH 4. The essentials:
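Custom libraries of small protein domains were pooled and measured with high-throughput quantitative proteomics after pH 4 stress. The read-out is the fold change in the amount of each domain that stays soluble after the acid stress, taken as a measure of aggregation propensity. Fold changes are on a log2 scale, and higher values mean more of the domain stayed soluble.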

In the case of “HMQLTVAVLIKNISKGQVISQGFLGFEARPERQIRGAYTNISEVLGRKAKSNIAVGTILKARHLDT”, the “soluble fraction (log2)” value was -0.49.

Turning to “HMQNAMQKELIDAFQKAYPDLDITKIELVYGTYYEVEAMNSTTEFTYRYDQNSKTFILAEQDNADP”, the “soluble fraction (log2)” value was -0.0395.

Consider “HMQNELAEARSQLAERKNIDQAKLILMKKRNISEPEAYKLLRSHAMQTNRRVAEVAESIITAESLLG”, for which the “soluble fraction (log2)” value was determined as 0.0831.

“HMQNGNLVDVYLNWRGKYYAIKMFFPNSKMPRRSDVQDQIVKVYPDARVQSFQVSKYVPGQPFL”: the “soluble fraction (log2)” value is -0.431.

On to “HMQNLSELAYVNLRDALMQGQMKPGEELPLRPISRSFGISATPMREALLRLVTESALEMDSRGRISVP”, for which the “soluble fraction (log2)” value was -0.183.

Take “HMQNPYDTLGVSRDSTDAEIKKAYRKLAMEHHPDKGGDSQRFAEINNAYDNIKDMSSRQNFENDPSNFQ”: the “soluble fraction (log2)” value stood at 0.186.

As to “HMQNVFARKNLTSVSVDKLGEEEILLFKQSFESKNLTSSEALRDLSKKGMSEAELRKLKVRLTQL”, the “soluble fraction (log2)” value is -0.177.

Take “HMQNWFADPKFEMFEDYGDAQSFYDTETKNIYVVMAEYGQKGSNTIQEITPDSEEYIPNYEKYKEYMENK”: the “soluble fraction (log2)” value was -1.42.

In the case of “HMQNYLEFIGNELKALTSIPSPSGYTKDVAAYLMKTLSDMGYEPQLSNKGNVFVTIGGEGNPLVLAAHVD”, the “soluble fraction (log2)” value was -0.436.

As for “HMQNYLEVLRLHELGMGQRKIAQQVHTSRDTIRKIIAIAENQGLNYSNLIGKTDNELSKVFG”, the “soluble fraction (log2)” value amounted to 0.0958.

On to “HMQPAGEGAILRYLSSGAVKGIGPVMAREIVRRFGTDTFRVMEQEPEKLLKVKGITEQRLQTIMESYQD”, for which the “soluble fraction (log2)” value was 0.145.

As to “HMQPDPAFVAWVDANPWYKENRTLRALVHDYAEEVKRQEPALIGTAFLDRVKQLVQSEHPELFD”, the “soluble fraction (log2)” value was -0.502.

With “HMQPETIEDATNLYLEAARATLQLIEQNNVIARDVKRLLEHLDNDMARIETLLAEMLSRRDHWLRHIH”, the “soluble fraction (log2)” value turned out to be 0.185.

For “HMQPIQPNQAKYLDGLSSKYKGKGNHSQAAQLTALRDALNAGDHAKAREIYDKLDYEPQAEAAH”, the “soluble fraction (log2)” value amounted to 0.105.

For “HMQPNVTRERILAAAMTVFAQKGWQKTSLDEVAAAAGMTKGAIYWHFRNKNDLFFALLDARLQRD”, the “soluble fraction (log2)” value was -1.08.

In the case of “HMQQAVTMQKPGRLLRNADGNGGAVRDLDVGMMLYPTGNRSELMWEVDDELGNRGWVNSTLFGLS”, the “soluble fraction (log2)” value was -0.585.

On to “HMQQDGSSSLGENMLNQELQARGVVPSEIPQEVWERVIQEAGKKSKREIYADIGLGRSLAAGFAQRLAA”, for which the “soluble fraction (log2)” value was -0.0576.

For “HMQQDVLKLKSGGNYKGEYINIESAYVLFKPEGGNATQRIKVNEIQMLKLADGTEVIFGGRVK”, the “soluble fraction (log2)” value was 0.297.

“HMQQEPNFYIVDGNTNQIVDRYYAPDSNVAHQYLGQWRQQHDPQETGNYRYGRLSSETEERYRNLAA”: the “soluble fraction (log2)” value was 0.188.

Take “HMQQFGANVRLIRKARQMSIKQLSELSGVSQTMISEVERGLKIPTIDVAGKIAAALGIDLTNLMG”: the “soluble fraction (log2)” value is 0.0733.

On to “HMQQIQILPDGKIKLPDLSGTNMREAIEILHKGGLRMKPYGSGNAYQQKPAAGETVASGTTVEVLSL”, for which the “soluble fraction (log2)” value was 0.0974.

For the sequence “HMQQLAEQIPTDRPYISIAEAVVLFGISRDTIYRQIRKGNIPAVNLGERLTRISRIHIEAMFPKV”, the “soluble fraction (log2)” value was -0.282.

For “HMQQNYREMHKVKKGETLFGIARRYEITVDQLIKANPDMNAVGYELKKGDYIFIPYPDGQKP”, the “soluble fraction (log2)” value was -0.116.

Turning to “HMQRAEQLPAELAAVFRAETEAWGFFERQPPGYQRVAIHWVASAKQEATRLRRLAKLIEESAAGRR”, the “soluble fraction (log2)” value was -1.43.

For the sequence “HMQRDTIAISAIPTAIKTYLSSTYPTDTLVHAFVNKDQSIVVISKNIDFYATSFSTANAFIKRIQLPA”, the “soluble fraction (log2)” value was found to be 0.156.

“HMQRFIHITVSDVHQATRLLEEEMQLTNYSVAENNAIKIFEFTYEPQEINHLFGKNGIEVSSLFIGS”: the “soluble fraction (log2)” value was -0.345.

On to “HMQRNLILKLDTDQPEIYKKLESIFVEINGLLVPFFIEKIIWSKQDSLNILFKNSSEALVEQLIGKNVFLP”, for which the “soluble fraction (log2)” value is 0.0162.

Regarding “HMQRSVNYSELHEIKERVFDALYSSPMSMPDLLAWLKGDEEHTISVIRLMQDNGDIEMGEDGRLAVV”, the “soluble fraction (log2)” value is -0.629.

In the case of “HMQSISLEEAKSAALDDAQLGIDEVEFLKTERNTDGDTSYYDIQFLVNGTIYKYQINTETGAILHVDYEA”, the “soluble fraction (log2)” value is -0.511.

For “HMQSITAGDKVRVKNYTVSGGKKRGKVYGGAGTFVVYYEKYDVISVTGDRVVIGIGKAVTAAVHIDDLEK”, the “soluble fraction (log2)” value was -0.932.

With “HMQSKSEINELPKSIHMAFSPKNFELFIDNLKINEIDFSNWKGELNTIQERVDGQRQIWIQDPQGYWIEIN”, the “soluble fraction (log2)” value is -0.335.

On to “HMQSLIVPVPKPEDDPVYKDGIKQDPVEVVSIWLGRDYLNMILNLKVSTGKGHTFGIVEDVS”, for which the “soluble fraction (log2)” value was -0.383.

As for “HMQSNDTAEIEAVVKEIMAANERVVNDYRSGNTKVVSFFVGQVMKATKGKANPKVVNEVLAKLLK”, the “soluble fraction (log2)” value stood at 0.169.

On to “HMQSVPELDQQFKIAIENNDFIKLAQLKEQGYHPSKEVMQSLSNTTPNNTIIAVQKIFGLKA”, for which the “soluble fraction (log2)” value is -0.185.

As for “HMQSVSANSVQKQLADIIDGEDKTHPLSDRELTEKLVAQGVQISRRTVAKYREAMGIPGASGRKQ”, the “soluble fraction (log2)” value was determined as 0.107.

Consider “HMQTAAANPSPESILQAREAAGLSQSEAGALIYSGLRSWQHWEWGTRRMHPGLFELFLKKTGQI”, for which the “soluble fraction (log2)” value is -1.02.

Regarding “HMQTKMVYSDLVNSIKSEQVSSMLVSGNTVTVTLTNGDKAKVKIPSLDTLQADVGKEMNDQMDKGTLKQE”, the “soluble fraction (log2)” value is -0.123.

For the sequence “HMQTKNYVYFNNTENWSTVNVYVWSSKDSTYMSWPGKAMESIGNNTYRFELPNGAEYAIFNNGSAQTVD”, the “soluble fraction (log2)” value was -0.185.

Regarding “HMQTKSDMVYHRVREDIVNGVFAPGERLLISAVAKQYGVSEIPVREAFRVLSQEGFLKTRPNSGFVVS”, the “soluble fraction (log2)” value was -0.294.

Turning to “HMQTMTAGERREAILRELEQAQGPVSASALAKRFHVSRQAVVGDVAMLRALNSPIAATPRGYVLTR”, the “soluble fraction (log2)” value was determined as 0.0633.

In the case of “HMQTMTDDQVMQYVISQQEKGATQQDIVSKLLQKGVTVDQMRRIRKKYEAQQSQPGALDLTGSS”, the “soluble fraction (log2)” value is -0.0786.

For the sequence “HMQTNEAIINQAVQAAEAQNITTRSQAVDALKANGMTEAQARQLAVQRGISYDQLINELFPME”, the “soluble fraction (log2)” value came to 0.108.

Consider “HMQTPVTVGDTMPNLIGTPKRLLLELLNRTDITVKLTGDGYVTAQSPAAGTPIAKGMIIELSL”, for which the “soluble fraction (log2)” value was found to be 0.19.

Regarding “HMQTQVEVLVKYVLEDGTVYKEDKVSADIGAILDSGDLPMLSNDMKFIDDFLFYEVKESDNVIERKVAKLV”, the “soluble fraction (log2)” value is -1.41.

On to “HMQTQYIVDTKTTLLVRTGPGKSNSQFGRLKNGETINVYAIKNGWAEISYNGKTGYVSEQYIKLA”, for which the “soluble fraction (log2)” value stood at 0.327.

Turning to “HMQTTDTGAIETIVDELMAANPDKVEAYRGGKTGLQGFFMGQVMKQLGGQGNPKVISAIVTEKLE”, the “soluble fraction (log2)” value is 0.257.

Consider “HMQTTPAGHELLIRYFANGNIRERGMMKDGKRNGIWIFYDESGMEIRKTKYKMGKIISDYDLN”, for which the “soluble fraction (log2)” value came out at 0.0593.

With “HMQTTQQLIRNLRLKQAATLLADKRHSITEVATLTGFTHPTYFATAFREMFGVSPSEYMEQHI”, the “soluble fraction (log2)” value is 0.126.

For the sequence “HMQTYNQLKRGMTEWIQAGQKQKAYELFAGVAGQLSLSSAAGKKQYNELVTILNRAGFGIPLE”, the “soluble fraction (log2)” value was ≥ 0.43.

As for “HMQVEMVLSQEAHEWLLQRGFIPEYGAREMDRVIAAHLKPLLMREILFGTLKAGGKVRVQVENGALKLQP”, the “soluble fraction (log2)” value is -1.74.

On to “HMQVLSESDVEDIKAISGGDKAYDNLMEWAGSKLSKQDAKDYDDVLATGNKTAITFAVKALMAQYENAN”, for which the “soluble fraction (log2)” value was -1.05.

As to “HMQVPFGFQRNPSTGTLEEKAEEQLIINQVLSLKNSGIGVSEISKRLGELSVSRIYRIINTAKKNAS”, the “soluble fraction (log2)” value is -0.107.

For “HMQVSDANQLTDVVKSIIKQYPVEVEKYKSGKKALFGFFMGKVMENLKGKSNPKILKNVLTEILD”, the “soluble fraction (log2)” value turned out to be 0.263.

Regarding “HMQVSDTNTLEQFAKEVIEANPKAVEDYHQNPLAIGFLVGQLMKVSKGSANPQTGKEILEKLL”, the “soluble fraction (log2)” value was -0.185.

Turning to “HMQVSDVTTIRALVEEVLSSSPQQLAQYRAGKLSLKGYFVGQVMKKGKGQLNAAAVNNLLDEIL”, the “soluble fraction (log2)” value is 0.36.

“HMQVSEQVQRLLDALENDTLTTKELMDRLGLKHRPTFRKNYLLPSMKLGLVEMTIPDKPNSSRQKYRRRQ”: the “soluble fraction (log2)” value was 0.00707.

Take “HMQVTEVDYGTFMKMVEEKNVGEVEVGNSMIVFTDKDGKAIYKTGAMNDPNLTERLYNAGASFTKE”: the “soluble fraction (log2)” value is -0.209.

“HMQVTGLTAENAHRVTMIREKGTDHPPVPFHFRKEHHGTGNYVHLYGNPEDRNELHSRDFKDWEAVAFK”: the “soluble fraction (log2)” value worked out at 0.319.

For the sequence “HMQVVDWSQVDKEDYLLATKRRAVSTGELKFLLLNNLTYDLTQTRFFKGMDASYYYEGYNLYQTGE”, the “soluble fraction (log2)” value was -0.693.

As for “HMQWGKVRRLPSGRYQASYVHKGTRYTAPETYTVQGRAHGWIESERRLIVTDTWTPPDTRPS”, the “soluble fraction (log2)” value was -0.202.

Consider “HMQWLDSIRSRLRVGQTISYFEPRENASSSGLIIELRRKRVLVLEIATQKRWLIEYAAINVDG”, for which the “soluble fraction (log2)” value was -0.325.

Consider “HMQWQPSEEAMQRLEQHGIPRAFSFSQLDAFVLQGQEQGSNRNDWNTRFFRFIKNQWVYAQN”, for which the “soluble fraction (log2)” value was -1.17.

With “HMQYDSYTVEEPAKLLDWLLAHLRQSRTKIKATLQGHGIKVNGKTVTQFDYPLEPGMKIRVSLTK”, the “soluble fraction (log2)” value is -0.622.

As for “HMQYKTRVINLSILEVGMVLGRDLINKDGKIIVKKDVAISDFLKDHLIGLSKIKEIEPQIYIKV”, the “soluble fraction (log2)” value was -0.452.

With “HMQYSIQVNKLLKAMREDVWYTANEILDLLKLKSKETLRKNYLDPAINNKLIILELPDKPTSRNQRYKI”, the “soluble fraction (log2)” value was -0.289.

Take “HMQYTQKTMYINDSYVNLRKSASTSSDIIMVVELNTKLTVIGEDGDWYKVKTSSGNAYVLKTLLSNEKKET”: the “soluble fraction (log2)” value is -0.368.

Consider “HMQYTTDEVRERVLSVLNQLLLRWIVREGKDMFNIQANAVEISEGIKGELNTELEKIGLAATGFQIDSV”, for which the “soluble fraction (log2)” value was -0.678.

Turning to “HMRADRLISMLMLLQARGKITAEELAVELGVSQRTIYRDIEALSFAGVPVYAERGPGGGIGLLEPY”, the “soluble fraction (log2)” value is -1.21.

Take “HMRAEPNSNYSLAIIYKNRYDIAVKKKDAVKEVEYGKMVYEYLNKYVVLSGNKSAKYKKILNYFSSY”: the “soluble fraction (log2)” value was -0.445.
